Our source for the stoichiometry N values is paper PMC6162275.

The target of the experiment is C-terminally truncated SthK 1-420. Description: high-speed atomic force microscopy (HS-AFM); SthK reconstituted in lipid bilayers (E. coli polar lipid extract, lipid-to-protein ratio 0.8 to 1.0 w:w) as 2D-crystals, adsorbed on mica; imaging buffer 20 mM HEPES pH 8.0, 100 mM KCl, 100 uM cAMP; the oligomer is seen in topographs of single channels.

The term stoichiometry N denotes a count of units in the complex or per binding partner. “C-terminally truncated SthK 1-420 (domain or fragment)”: the stoichiometry N worked out at 4.
